{"source": "paper PMC8611094", "about": "“RNA G-quadruplex structures control ribosomal protein production”", "molecular_target": "DDX3X (UniProt O00571 1-662)", "sequence (O00571 whole entry)": "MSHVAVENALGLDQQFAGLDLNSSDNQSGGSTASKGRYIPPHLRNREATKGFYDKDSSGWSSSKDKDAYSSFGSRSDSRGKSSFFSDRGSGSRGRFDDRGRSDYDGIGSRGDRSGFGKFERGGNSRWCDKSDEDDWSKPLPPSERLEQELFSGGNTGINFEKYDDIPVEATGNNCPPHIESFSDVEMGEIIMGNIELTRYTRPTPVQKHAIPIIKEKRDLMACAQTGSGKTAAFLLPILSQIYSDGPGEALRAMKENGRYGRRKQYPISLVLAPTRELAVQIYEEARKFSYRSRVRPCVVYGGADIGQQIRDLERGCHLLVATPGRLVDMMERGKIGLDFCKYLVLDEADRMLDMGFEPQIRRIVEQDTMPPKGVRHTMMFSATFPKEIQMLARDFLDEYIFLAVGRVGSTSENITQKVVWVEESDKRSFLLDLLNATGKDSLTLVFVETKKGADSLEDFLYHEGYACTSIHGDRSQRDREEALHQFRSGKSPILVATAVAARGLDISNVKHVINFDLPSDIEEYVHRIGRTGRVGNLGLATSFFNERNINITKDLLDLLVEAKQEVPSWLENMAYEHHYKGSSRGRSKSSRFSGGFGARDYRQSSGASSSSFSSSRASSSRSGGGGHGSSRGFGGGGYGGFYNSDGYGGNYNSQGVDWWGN", "test": "ELISA; ELISA performed as in Zyner et al. (ref 43); buffer, salt, pH and temperature not given in the material", "conditions": "protein: commercial; tags: FLAG; label: 5' biotin; intramolecular G4", "data": [{"binder": "UGUGGGAGGGGCGGGUCUGGGUGC (structured_RNA)", "note": "[NRAS G4]", "values": [{"measurement": "Kd", "result": 18, "unit": "nM"}]}]}
